Assay [1] has as its target T1, DNA-PKcs (Homo sapiens, UniProt P78527). The experiment in a line: Peptide interaction assay with crude HeLa cell nuclear extract. Type of assay: binding. Set-up: incubated with ˜100 μg (10 μl) of HeLa Cell nuclear extract (NE); host or cells: HeLa cell nuclear extract. As to the method:
(§1) 5 Peptides with the sequence Ser-Gly-Ser-Gly (SEQ ID NO:10) as a linker to 12 amino acid residues (SEQ ID NOS:1 and 12-15) derived from the sequence of Ku80 (see FIG. 5) were generated with a biotin moiety at the N-terminus (Khiron Technologies). Each peptide (2×10^11 moles) was incubated with either 400 ng (˜10^12 moles) of purified DNA-PKcs or 100 μg of crude HeLa NE in 100 μl (final) volume of Z′ buffer (see above for buffer composition). Binding reactions were incubated for 2.75 hours at 4° C., then a 100 μl suspension of para-magnetic beads, containing 1:5 dilution of Dynabeads (Dynal) in Z′ buffer, was added for a final 0.25 hour incubation. Dynabeads are conjugated with Streptavidin. The bead-protein complexes were be retrieved from the solution using a magnet and washed 5 times with 0.5 ml of Buffer X (see above for buffer composition). Proteins retained on the beads were eluted in SDS gel-loading buffer and subjected to polyacrylamide gel eletrophoresis and silver staining.
The ability of each of the five peptides to retrieve proteins from a crude unfractionated HeLa cell nuclear extract was determined. […] Any proteins remaing bound to the peptide/beads was eluted in SDS-PAGE buffer, resolved on a 6% polyacrylamide gel and detected with silver-staining. […]

The target of assay [2] is T1, DNA-PKcs. The experiment in a line: Peptide interaction assay with purified DNA-PKcs. Type of assay: binding. On the set-up: The starting material for purification of DNA-PKcs was HeLa NE; host or cells: HeLa nuclear extract; purified in house over Q Sepharose, heparin agarose, phenyl Sepharose and Mono-S. The note with it: 50 mM and 100 mM KCl; streptavidin paramagnetic beads; silver-staining. Here is the method: as §1, with “Proteins retained on the beads were eluted in SDS gel-loading buffer and subjected to polyacrylamide gel eletrophoresis and silver staining.” left out
The inventors synthesised a series of peptides (Peptides A-E, SEQ ID NOS:1 and 12-15) derived in sequence from the extreme C-terminus of Ku80 (residues 609 to 733, SEQ ID NO:11: see FIG. 5 and Materials and Methods). […] The beads were recovered using a magnet, washed extensively in buffer containing the same concentration of KCl as the incubation buffer X (25 mM HEPES pH 7.5, 50 mM/100 mM KCl, 2 mM MgCl2, 0.4% NP-40), and the bound protein eluted in SDS-PAGE sample buffer, resolved on a 6% polyacrylamide gel and detected using silver-staining.

In assay [3] the target is T2, DNA-dependent protein kinase catalytic subunit (DNA-PKcs), human, from HeLa cell nuclear extract (human, UniProt P78527 1-4128).
T2 construct: mature; Used either within crude HeLa nuclear extract or as an essentially homogeneous preparation (about 1 Ku per 840 DNA-PKcs molecules); also called purified DNA-PKcs; homogeneous DNA-PKcs
The assay can be described thus: biotinylated peptide with purified DNA-PKcs, streptavidin magnetic beads, 50 mM or 100 mM KCl, silver stain. As to the method:
as §1, with “12–15)” for “12-15)”, “(2 ×10^11” for “(2×10^11”, “(~10^12” for “(˜10^12”, “Z'” for “Z′”

Where no end group is shown, it is not given here. The star is where a group is joined. Biotin = O=C1N[C@H]2[C@H](CS[C@H]2CCCCC(=O)*)N1

T1 sequence (P78527 whole entry): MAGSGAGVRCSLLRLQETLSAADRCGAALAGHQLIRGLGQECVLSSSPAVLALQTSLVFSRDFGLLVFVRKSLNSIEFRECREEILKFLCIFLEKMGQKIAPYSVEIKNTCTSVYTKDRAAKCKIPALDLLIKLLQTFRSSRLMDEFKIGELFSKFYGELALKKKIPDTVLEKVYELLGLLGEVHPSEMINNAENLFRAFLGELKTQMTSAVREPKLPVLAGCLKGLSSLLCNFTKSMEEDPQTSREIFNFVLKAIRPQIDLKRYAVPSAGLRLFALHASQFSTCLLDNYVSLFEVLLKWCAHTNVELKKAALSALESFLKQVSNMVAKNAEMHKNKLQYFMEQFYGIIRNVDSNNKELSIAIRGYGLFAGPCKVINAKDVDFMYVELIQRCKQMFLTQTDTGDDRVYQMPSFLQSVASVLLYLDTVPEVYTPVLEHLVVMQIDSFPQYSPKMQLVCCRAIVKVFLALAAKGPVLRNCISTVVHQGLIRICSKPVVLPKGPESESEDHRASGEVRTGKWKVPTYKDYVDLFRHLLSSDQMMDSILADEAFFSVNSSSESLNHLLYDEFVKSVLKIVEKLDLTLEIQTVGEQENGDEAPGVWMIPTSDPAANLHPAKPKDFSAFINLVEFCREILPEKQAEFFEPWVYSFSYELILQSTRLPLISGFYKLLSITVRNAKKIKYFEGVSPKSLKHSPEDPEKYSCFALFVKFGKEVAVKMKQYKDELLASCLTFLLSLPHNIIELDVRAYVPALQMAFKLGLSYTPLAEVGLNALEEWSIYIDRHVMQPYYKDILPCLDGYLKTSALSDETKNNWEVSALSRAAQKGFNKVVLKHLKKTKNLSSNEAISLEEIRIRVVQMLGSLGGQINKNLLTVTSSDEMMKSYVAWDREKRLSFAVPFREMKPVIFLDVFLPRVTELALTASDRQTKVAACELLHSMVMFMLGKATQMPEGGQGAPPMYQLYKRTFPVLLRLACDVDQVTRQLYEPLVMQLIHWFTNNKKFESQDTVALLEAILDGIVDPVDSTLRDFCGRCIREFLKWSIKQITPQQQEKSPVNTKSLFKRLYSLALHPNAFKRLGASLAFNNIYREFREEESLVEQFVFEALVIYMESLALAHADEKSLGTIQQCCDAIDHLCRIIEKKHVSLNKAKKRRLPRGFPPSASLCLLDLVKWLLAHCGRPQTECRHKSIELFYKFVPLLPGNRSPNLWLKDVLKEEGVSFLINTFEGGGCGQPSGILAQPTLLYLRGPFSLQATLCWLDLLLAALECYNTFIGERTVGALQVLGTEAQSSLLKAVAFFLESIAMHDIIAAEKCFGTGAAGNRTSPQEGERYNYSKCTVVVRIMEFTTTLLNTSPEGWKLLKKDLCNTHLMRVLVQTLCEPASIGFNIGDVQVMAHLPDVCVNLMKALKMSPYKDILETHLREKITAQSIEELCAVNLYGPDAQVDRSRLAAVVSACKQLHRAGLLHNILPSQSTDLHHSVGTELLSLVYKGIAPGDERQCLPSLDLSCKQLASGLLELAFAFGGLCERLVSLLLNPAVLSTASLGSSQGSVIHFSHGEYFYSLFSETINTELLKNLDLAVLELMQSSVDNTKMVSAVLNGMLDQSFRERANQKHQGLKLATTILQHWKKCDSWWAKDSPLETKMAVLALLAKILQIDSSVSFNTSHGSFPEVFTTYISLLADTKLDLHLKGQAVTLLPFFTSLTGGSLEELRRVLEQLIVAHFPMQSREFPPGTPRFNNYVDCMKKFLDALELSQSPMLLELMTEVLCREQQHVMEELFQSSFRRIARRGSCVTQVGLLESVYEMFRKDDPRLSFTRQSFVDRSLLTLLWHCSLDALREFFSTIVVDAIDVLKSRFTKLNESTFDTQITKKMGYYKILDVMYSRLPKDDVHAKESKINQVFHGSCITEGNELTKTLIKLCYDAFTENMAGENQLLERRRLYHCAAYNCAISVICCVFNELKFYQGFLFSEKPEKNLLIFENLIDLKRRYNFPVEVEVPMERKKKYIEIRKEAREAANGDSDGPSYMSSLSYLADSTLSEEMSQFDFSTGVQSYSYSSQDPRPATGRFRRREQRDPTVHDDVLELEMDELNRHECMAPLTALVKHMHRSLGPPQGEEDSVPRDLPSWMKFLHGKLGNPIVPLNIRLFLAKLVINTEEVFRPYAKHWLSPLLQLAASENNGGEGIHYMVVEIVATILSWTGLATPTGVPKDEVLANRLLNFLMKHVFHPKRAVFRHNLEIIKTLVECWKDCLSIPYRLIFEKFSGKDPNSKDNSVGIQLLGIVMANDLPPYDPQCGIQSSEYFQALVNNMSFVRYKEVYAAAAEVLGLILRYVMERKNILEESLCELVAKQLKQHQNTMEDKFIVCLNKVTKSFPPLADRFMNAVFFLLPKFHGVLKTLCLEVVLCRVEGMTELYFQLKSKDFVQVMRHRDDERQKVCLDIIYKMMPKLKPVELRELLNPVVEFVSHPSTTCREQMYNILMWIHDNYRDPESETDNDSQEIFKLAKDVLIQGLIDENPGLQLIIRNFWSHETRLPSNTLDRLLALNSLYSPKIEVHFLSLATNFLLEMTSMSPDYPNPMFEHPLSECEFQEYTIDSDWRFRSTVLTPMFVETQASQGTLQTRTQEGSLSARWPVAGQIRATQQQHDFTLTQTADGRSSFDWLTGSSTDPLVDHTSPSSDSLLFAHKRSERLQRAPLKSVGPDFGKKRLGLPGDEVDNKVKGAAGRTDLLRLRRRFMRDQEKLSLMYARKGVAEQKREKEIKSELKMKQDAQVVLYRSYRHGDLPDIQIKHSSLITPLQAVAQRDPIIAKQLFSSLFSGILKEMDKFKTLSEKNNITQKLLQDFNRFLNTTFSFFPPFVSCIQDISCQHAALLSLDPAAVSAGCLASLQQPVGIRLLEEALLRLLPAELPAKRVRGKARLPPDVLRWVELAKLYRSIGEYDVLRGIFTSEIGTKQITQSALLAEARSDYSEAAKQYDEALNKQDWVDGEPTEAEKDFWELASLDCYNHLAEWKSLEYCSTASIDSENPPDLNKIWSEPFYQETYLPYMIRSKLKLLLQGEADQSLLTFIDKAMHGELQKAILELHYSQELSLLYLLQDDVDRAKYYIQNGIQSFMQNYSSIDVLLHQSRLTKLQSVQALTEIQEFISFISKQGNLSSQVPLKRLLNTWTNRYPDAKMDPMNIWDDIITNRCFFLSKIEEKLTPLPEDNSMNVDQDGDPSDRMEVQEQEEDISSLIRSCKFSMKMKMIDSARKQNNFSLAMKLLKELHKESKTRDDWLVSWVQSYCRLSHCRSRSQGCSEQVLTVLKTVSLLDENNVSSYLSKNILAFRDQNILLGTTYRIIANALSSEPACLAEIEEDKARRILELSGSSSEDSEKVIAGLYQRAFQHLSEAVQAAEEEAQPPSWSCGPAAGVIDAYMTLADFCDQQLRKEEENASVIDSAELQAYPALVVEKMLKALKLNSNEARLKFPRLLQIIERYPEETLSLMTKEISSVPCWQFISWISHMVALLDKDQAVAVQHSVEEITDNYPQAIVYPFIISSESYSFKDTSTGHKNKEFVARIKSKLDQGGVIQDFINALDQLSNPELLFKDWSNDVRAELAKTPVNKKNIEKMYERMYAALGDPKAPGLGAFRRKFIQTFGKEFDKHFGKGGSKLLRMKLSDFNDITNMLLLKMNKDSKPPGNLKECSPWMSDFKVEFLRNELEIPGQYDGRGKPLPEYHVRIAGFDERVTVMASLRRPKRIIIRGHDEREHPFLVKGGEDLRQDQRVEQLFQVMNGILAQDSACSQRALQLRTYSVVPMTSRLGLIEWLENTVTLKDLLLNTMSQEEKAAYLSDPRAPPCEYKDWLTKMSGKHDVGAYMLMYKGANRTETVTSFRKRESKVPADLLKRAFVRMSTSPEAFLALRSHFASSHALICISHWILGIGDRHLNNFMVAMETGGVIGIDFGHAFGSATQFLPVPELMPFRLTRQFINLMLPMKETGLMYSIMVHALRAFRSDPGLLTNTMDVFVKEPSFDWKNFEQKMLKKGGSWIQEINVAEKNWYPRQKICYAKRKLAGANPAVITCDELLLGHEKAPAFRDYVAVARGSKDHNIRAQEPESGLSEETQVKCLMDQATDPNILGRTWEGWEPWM
T2 sequence (P78527 whole entry): as above

As to EGGDVDDLLDMI [Peptide E], the “proteins retrieved from HeLa nuclear extract by biotinylated peptide” value with DNA-PKcs [1] (50 mM KCl, streptavidin magnetic beads, silver-staining, western blotting) was “affinity purified predominantly a single protein species of high molecular weight”. Besides, the “depletion of DNA-PKcs from HeLa nuclear extract” value in the assay with DNA-PKcs [1] (additional studies) is 60-70%. Moreover, in the assay with DNA-PKcs [2], the “binding of purified DNA-PKcs by biotinylated peptide” value is given as “interacts directly with DNA-PKcs”.

B1: Peptide A (biotin-Ser-Gly-Ser-Gly linked to 12 residues of the Ku80 C-terminus) (peptide)
peptide: Biotin-SGSGEEAKKFLAPKDK
Take B1: the binding result in assay [3] is listed as “no binding”.

B2: Peptide C (biotin-Ser-Gly-Ser-Gly linked to 12 residues of the Ku80 C-terminus) (peptide)
peptide: Biotin-SGSGPSGDTAAVFEEG
With B2, the binding result in assay [3] was “no binding”.

B3: Peptide B (biotin-Ser-Gly-Ser-Gly linked to 12 residues of the Ku80 C-terminus) (peptide)
peptide: Biotin-SGSGLAPKDKPSGDTA
Take B3: in assay [3], the binding result was “no binding”.

B4: Peptide D (biotin-Ser-Gly-Ser-Gly linked to 12 residues of the Ku80 C-terminus) (peptide)
peptide: Biotin-SGSGAVFEEGGDVDDL
As for B4, the binding result in assay [3] was “no binding”.

These data come from US6753151B1, “Interactions of Ku polypeptides and applications thereof” (Kudos Pharmaceuticals Limited, priority 1999, dated 2004).
